Test results: patent US7888090B2, “Mutants of O6-alkylguanine-DNA alkyltransferase” (Ecole Polytechnique Federale de Lausanne, priority 2004, dated 2011)

How the values were obtained:
[1] = test system: salmon sperm DNA; experiment: DNA binding as inhibition by DNA of the reaction with BG-Cy3; settings: salmon sperm DNA 25 µg/ml
Method: The interaction with DNA is e.g. quantified by assessing the amount of copurified DNA from E. coli extracts under conditions of low salt and absence of DNase. This is compared between parallel purifications of fusion proteins (e.g. fusions to GST) of wild type (human) and mutant AGT by spectroscopic methods (ratio of absorbance at 260 and 280 nm). Alternatively the interaction of AGT with DNA is measured as the inhibition of AGT reactivity with BG-Cy3 (O^6-(4-aminomethyl-benzyl)-guanine coupled to Cy3) as substrate in the presence of DNA. This approach takes advantage of a marked increase of fluorescence of the Cy3 fluorophore upon reaction of BG-Cy3 with AGT. The reaction kinetics of AGT with a Cy3-labeled benzylguanine derivative is followed by fluorescence intensity measurements over several hours at various concentrations of salmon sperm DNA.
DNA binding: DNA binding is measured as inhibition by DNA of the reaction of AGT mutants with BG derivatives. The reaction rate of AGT mutants in a reaction mixture containing salmon sperm DNA (25 µg/ml) instead of oligonucleotide is measured with the BG-Cy3 assay. The reaction rate is determined by fitting the obtained data to a monoexponential increase to maximum.

[2] = Reactivity towards N^9-modified O^6-benzylguanine derivatives (preblocking, BG-Cy3 assay); format: biochemical; settings: 100 µM BG, 15 min
Method: FIG. 3: Reactivity of AGT mutants with N^9-modified BG derivatives. 10 µM AGTM (grey bars) or PGEG-hAGT (black bars) were preblocked with 100 µM N^9-modified BG derivatives (see list below), and subsequently labeled with 20 µM BG-Cy3. After 1 h reaction time, fluorescence intensity (FI) indicated in arbitrary units [a.u.] at 595 nm is measured. The black bold line is set at the reading for condition 1 corresponding to background fluorescence of the fluorophore not attached to protein. Values above this line indicate slow or incomplete reaction with N^9-modified BG-derivative. • 1 Fluorescence of BG-Cy3 without protein; background fluorescence. • 2 Reaction with BG-Cy3; no preblocking, positive control. • 3 Reaction with BG-Cy3, preblocked with 100 µM BG. • 4 Reaction with BG-Cy3, preblocked with 100 µM N^9-isobutyl-O^6-benzylguanine. • 5 Reaction with BG-Cy3, preblocked with 100 µM N^9-propyl-O^6-benzylguanine. • 6 Reaction with BG-Cy3, preblocked with 100 µM N^9-cyanomethyl-O^6-benzylguanine.
Reactivity of AGT towards N^9-modified O^6-benzylguanine derivatives: The experiment is based on the BG-Cy3 assay. Upon reaction of AGT with BG-Cy3, an increase of fluorescence emission intensity of Cy3 by a factor 2-3 can be observed. […]

B1: AGTM: AGT mutant Cys62Ala, Gln115Ser, Gln116His, Lys125Ala, Ala127Thr, Arg128Ala, Gly131Lys, Gly132Thr, Met134Leu, Arg135Ser, Cys150Asn, Ser151Ile, Ser152Asn, Asn157Gly, Ser159Glu, truncated after … (protein, UniProt P16455 1-207, looked up, variant C62A Q115S Q116H K125A A127T R128A G131K G132T M134L R135S C150N S151I S152N N157G S159E del183-207)
Methylated-DNA--protein-cystei …: MDKDCEMKRTTLDSPLGKLELSGCEQGLHEIKLLGKGTSAADAVEVPAPAAVLGGPEPLMQATAWLNAYFHQPEAIEEFPVPALHHPVFQQESFTRQVLWKLLKVVKFGEVISYSHLAALAGNPAATAAVKTALSGNPVPILIPCHRVVNINGAVGGYEGGLAVKEWLLAHEGHRLGKPGLG
modifications: His tag
- reduction of reaction rate to BG-Cy3 in presence of DNA [1]: unchanged
- AGT remaining active after preblocking with BG [2]: 5%
